# Experimental data: patent US20190015483A1 (CSL BEHRING RECOMBINANT FACILITY, published 2019)
# T1: recombinant Factor VIII (CSL627, rVIII-SingleChain) (Homo sapiens (Human), UniProt P00451 20-2351)
# T1 construct: also called FVIII
# T1 sequence: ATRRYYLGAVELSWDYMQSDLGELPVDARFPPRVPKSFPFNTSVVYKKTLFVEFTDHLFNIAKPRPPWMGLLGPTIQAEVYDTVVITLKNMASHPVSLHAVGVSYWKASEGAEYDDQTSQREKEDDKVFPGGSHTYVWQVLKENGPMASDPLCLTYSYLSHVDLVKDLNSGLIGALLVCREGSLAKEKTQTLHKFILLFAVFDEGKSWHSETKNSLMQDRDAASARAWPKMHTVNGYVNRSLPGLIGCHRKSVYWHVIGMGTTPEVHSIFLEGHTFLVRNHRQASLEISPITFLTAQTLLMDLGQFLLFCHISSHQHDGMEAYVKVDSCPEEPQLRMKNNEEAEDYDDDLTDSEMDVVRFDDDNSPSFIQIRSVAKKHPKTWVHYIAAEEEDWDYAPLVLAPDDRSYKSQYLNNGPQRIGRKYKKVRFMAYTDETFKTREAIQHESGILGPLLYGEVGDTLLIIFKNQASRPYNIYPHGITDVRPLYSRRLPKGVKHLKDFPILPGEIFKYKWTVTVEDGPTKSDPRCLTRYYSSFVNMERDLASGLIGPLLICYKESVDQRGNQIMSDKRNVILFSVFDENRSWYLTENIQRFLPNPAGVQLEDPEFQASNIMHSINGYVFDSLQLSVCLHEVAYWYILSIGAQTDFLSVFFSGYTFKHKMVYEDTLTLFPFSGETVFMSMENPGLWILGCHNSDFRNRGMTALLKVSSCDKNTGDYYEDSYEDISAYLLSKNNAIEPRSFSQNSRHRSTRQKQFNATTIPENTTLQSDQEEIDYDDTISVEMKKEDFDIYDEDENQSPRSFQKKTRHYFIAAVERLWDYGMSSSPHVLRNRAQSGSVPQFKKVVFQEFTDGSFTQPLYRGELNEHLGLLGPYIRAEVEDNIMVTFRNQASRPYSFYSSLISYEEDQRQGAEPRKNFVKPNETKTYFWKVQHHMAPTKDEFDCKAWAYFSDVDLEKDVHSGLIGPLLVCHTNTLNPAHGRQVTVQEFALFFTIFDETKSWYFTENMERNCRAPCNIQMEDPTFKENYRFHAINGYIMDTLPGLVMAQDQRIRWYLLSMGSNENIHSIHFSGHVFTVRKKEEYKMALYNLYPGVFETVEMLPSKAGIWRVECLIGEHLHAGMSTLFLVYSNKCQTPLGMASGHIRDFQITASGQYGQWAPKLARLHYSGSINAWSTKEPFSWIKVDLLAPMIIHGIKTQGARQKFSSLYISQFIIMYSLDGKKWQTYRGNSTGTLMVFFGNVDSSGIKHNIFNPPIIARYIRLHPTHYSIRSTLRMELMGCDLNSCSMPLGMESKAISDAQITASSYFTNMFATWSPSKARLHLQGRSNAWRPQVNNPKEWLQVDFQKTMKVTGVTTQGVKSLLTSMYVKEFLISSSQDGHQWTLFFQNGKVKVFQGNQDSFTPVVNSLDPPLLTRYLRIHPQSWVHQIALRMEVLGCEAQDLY
# Biological target: T1, recombinant Factor VIII (CSL627, …)
# Experiment: SPR, anti-His capture, FVIII injected, 37 C
# Procedure: Binding kinetics were investigated by surface plasmon resonance using a Biacore 4000 biosensor at 37° C. Each mutant was captured from cell culture medium to a density of 40-150 RU on a CM-5 sensor chip pre-immobilised with anti-His antibody (14,000 RU). In an initial screening study, FVIII was injected over the captured mutants for 5 minutes at 1 nM and dissociation monitored for 5 minutes.
# All sensorgrams were double referenced by subtraction of signals from a reference spot (containing only immobilised anti His antibody) and from a blank injection. Binding kinetics were determined by fitting the double referenced sensorgrams to a 1:1 kinetic model.
Binder,Kd,koff,kon
Hu-vWF[764-1270]-8His S764P-L765E-S766I (other) PEICRPPMVKLVCPADNLRAEGLECTKTCQNYDLECMSMGCVSGCLCPPGMVRHENRCVALERCPCFHQGKEYAPGETVKIGCNTCVCRDRKWNCTDHVCDATCSTIGMAHYLTFDGLKYLFPGECQYVLVQDYCGSNPGTFRILVGNKGCSHPSVKCKKRVTILVEGGEIELFDGEVNVKRPMKDETHFEVVESGRYIILLLGKALSVVWDRHLSISVVLKQTYQEKVCGLCGNFDGIQNNDLTSSNLQVEEDPVDFGNSWKVSSQCADTRKVPLDSSPATCHNNIMKQTMVDSSCRILTSDVFQDCNKLVDPEPYLDVCIYDTCSCESIGDCACFCDTIAAYAHVCAQHGKVVTWRTATLCPQSCEERNLRENGYECEWRYNSCAPACQVTCQHPEPLACPVQCVEGCHAHCPPGKILDELLQTCVDPEDCPVCEVAGRRFASGKKVTLNPSDPEHCQICHCDVVNLTCEACQEPGGLVVPPTDAPVSPTTLYVEDISEPPLHDFHHHHHHHH,53.6 nM,0.055 s⁻¹,1.03e+06 M⁻¹ s⁻¹
Hu-vWF[764-1270]-8His S764P-L765I-S766I (other) PIICRPPMVKLVCPADNLRAEGLECTKTCQNYDLECMSMGCVSGCLCPPGMVRHENRCVALERCPCFHQGKEYAPGETVKIGCNTCVCRDRKWNCTDHVCDATCSTIGMAHYLTFDGLKYLFPGECQYVLVQDYCGSNPGTFRILVGNKGCSHPSVKCKKRVTILVEGGEIELFDGEVNVKRPMKDETHFEVVESGRYIILLLGKALSVVWDRHLSISVVLKQTYQEKVCGLCGNFDGIQNNDLTSSNLQVEEDPVDFGNSWKVSSQCADTRKVPLDSSPATCHNNIMKQTMVDSSCRILTSDVFQDCNKLVDPEPYLDVCIYDTCSCESIGDCACFCDTIAAYAHVCAQHGKVVTWRTATLCPQSCEERNLRENGYECEWRYNSCAPACQVTCQHPEPLACPVQCVEGCHAHCPPGKILDELLQTCVDPEDCPVCEVAGRRFASGKKVTLNPSDPEHCQICHCDVVNLTCEACQEPGGLVVPPTDAPVSPTTLYVEDISEPPLHDFHHHHHHHH,1.62 nM,0.0103 s⁻¹,6.34e+06 M⁻¹ s⁻¹
Hu-vWF[764-1270]-8His S764P-L765R-S766I (other) PRICRPPMVKLVCPADNLRAEGLECTKTCQNYDLECMSMGCVSGCLCPPGMVRHENRCVALERCPCFHQGKEYAPGETVKIGCNTCVCRDRKWNCTDHVCDATCSTIGMAHYLTFDGLKYLFPGECQYVLVQDYCGSNPGTFRILVGNKGCSHPSVKCKKRVTILVEGGEIELFDGEVNVKRPMKDETHFEVVESGRYIILLLGKALSVVWDRHLSISVVLKQTYQEKVCGLCGNFDGIQNNDLTSSNLQVEEDPVDFGNSWKVSSQCADTRKVPLDSSPATCHNNIMKQTMVDSSCRILTSDVFQDCNKLVDPEPYLDVCIYDTCSCESIGDCACFCDTIAAYAHVCAQHGKVVTWRTATLCPQSCEERNLRENGYECEWRYNSCAPACQVTCQHPEPLACPVQCVEGCHAHCPPGKILDELLQTCVDPEDCPVCEVAGRRFASGKKVTLNPSDPEHCQICHCDVVNLTCEACQEPGGLVVPPTDAPVSPTTLYVEDISEPPLHDFHHHHHHHH,0.218 nM,0.0173 s⁻¹,7.96e+07 M⁻¹ s⁻¹
Hu-vWF[764-1270]-8His S764P-L765Q-S766I (other) PQICRPPMVKLVCPADNLRAEGLECTKTCQNYDLECMSMGCVSGCLCPPGMVRHENRCVALERCPCFHQGKEYAPGETVKIGCNTCVCRDRKWNCTDHVCDATCSTIGMAHYLTFDGLKYLFPGECQYVLVQDYCGSNPGTFRILVGNKGCSHPSVKCKKRVTILVEGGEIELFDGEVNVKRPMKDETHFEVVESGRYIILLLGKALSVVWDRHLSISVVLKQTYQEKVCGLCGNFDGIQNNDLTSSNLQVEEDPVDFGNSWKVSSQCADTRKVPLDSSPATCHNNIMKQTMVDSSCRILTSDVFQDCNKLVDPEPYLDVCIYDTCSCESIGDCACFCDTIAAYAHVCAQHGKVVTWRTATLCPQSCEERNLRENGYECEWRYNSCAPACQVTCQHPEPLACPVQCVEGCHAHCPPGKILDELLQTCVDPEDCPVCEVAGRRFASGKKVTLNPSDPEHCQICHCDVVNLTCEACQEPGGLVVPPTDAPVSPTTLYVEDISEPPLHDFHHHHHHHH,0.248 nM,0.000286 s⁻¹,1.15e+06 M⁻¹ s⁻¹
Hu-vWF[764-1270]-8His S764P-L765G-S766I (other) PGICRPPMVKLVCPADNLRAEGLECTKTCQNYDLECMSMGCVSGCLCPPGMVRHENRCVALERCPCFHQGKEYAPGETVKIGCNTCVCRDRKWNCTDHVCDATCSTIGMAHYLTFDGLKYLFPGECQYVLVQDYCGSNPGTFRILVGNKGCSHPSVKCKKRVTILVEGGEIELFDGEVNVKRPMKDETHFEVVESGRYIILLLGKALSVVWDRHLSISVVLKQTYQEKVCGLCGNFDGIQNNDLTSSNLQVEEDPVDFGNSWKVSSQCADTRKVPLDSSPATCHNNIMKQTMVDSSCRILTSDVFQDCNKLVDPEPYLDVCIYDTCSCESIGDCACFCDTIAAYAHVCAQHGKVVTWRTATLCPQSCEERNLRENGYECEWRYNSCAPACQVTCQHPEPLACPVQCVEGCHAHCPPGKILDELLQTCVDPEDCPVCEVAGRRFASGKKVTLNPSDPEHCQICHCDVVNLTCEACQEPGGLVVPPTDAPVSPTTLYVEDISEPPLHDFHHHHHHHH,0.241 nM,0.0122 s⁻¹,5.04e+07 M⁻¹ s⁻¹

# Binders with a lower Kd, results first:
Kd,koff,kon,Binder
0.0218 nM,0.0015 s⁻¹,6.88e+07 M⁻¹ s⁻¹,Hu-vWF[764-1270]-8His S764P-L765K-S766I (other) PKICRPPMVKLVCPADNLRAEGLECTKTCQNYDLECMSMGCVSGCLCPPGMVRHENRCVALERCPCFHQGKEYAPGETVKIGCNTCVCRDRKWNCTDHVCDATCSTIGMAHYLTFDGLKYLFPGECQYVLVQDYCGSNPGTFRILVGNKGCSHPSVKCKKRVTILVEGGEIELFDGEVNVKRPMKDETHFEVVESGRYIILLLGKALSVVWDRHLSISVVLKQTYQEKVCGLCGNFDGIQNNDLTSSNLQVEEDPVDFGNSWKVSSQCADTRKVPLDSSPATCHNNIMKQTMVDSSCRILTSDVFQDCNKLVDPEPYLDVCIYDTCSCESIGDCACFCDTIAAYAHVCAQHGKVVTWRTATLCPQSCEERNLRENGYECEWRYNSCAPACQVTCQHPEPLACPVQCVEGCHAHCPPGKILDELLQTCVDPEDCPVCEVAGRRFASGKKVTLNPSDPEHCQICHCDVVNLTCEACQEPGGLVVPPTDAPVSPTTLYVEDISEPPLHDFHHHHHHHH
0.0424 nM,6.6e-05 s⁻¹,1.56e+06 M⁻¹ s⁻¹,Hu-vWF[764-1270]-8His S764P-L765H-S766I (other) PHICRPPMVKLVCPADNLRAEGLECTKTCQNYDLECMSMGCVSGCLCPPGMVRHENRCVALERCPCFHQGKEYAPGETVKIGCNTCVCRDRKWNCTDHVCDATCSTIGMAHYLTFDGLKYLFPGECQYVLVQDYCGSNPGTFRILVGNKGCSHPSVKCKKRVTILVEGGEIELFDGEVNVKRPMKDETHFEVVESGRYIILLLGKALSVVWDRHLSISVVLKQTYQEKVCGLCGNFDGIQNNDLTSSNLQVEEDPVDFGNSWKVSSQCADTRKVPLDSSPATCHNNIMKQTMVDSSCRILTSDVFQDCNKLVDPEPYLDVCIYDTCSCESIGDCACFCDTIAAYAHVCAQHGKVVTWRTATLCPQSCEERNLRENGYECEWRYNSCAPACQVTCQHPEPLACPVQCVEGCHAHCPPGKILDELLQTCVDPEDCPVCEVAGRRFASGKKVTLNPSDPEHCQICHCDVVNLTCEACQEPGGLVVPPTDAPVSPTTLYVEDISEPPLHDFHHHHHHHH
0.00241 nM,0.000137 s⁻¹,5.69e+07 M⁻¹ s⁻¹,Hu-vWF[764-1270]-8His S764P-L765M-S766I (other) PMICRPPMVKLVCPADNLRAEGLECTKTCQNYDLECMSMGCVSGCLCPPGMVRHENRCVALERCPCFHQGKEYAPGETVKIGCNTCVCRDRKWNCTDHVCDATCSTIGMAHYLTFDGLKYLFPGECQYVLVQDYCGSNPGTFRILVGNKGCSHPSVKCKKRVTILVEGGEIELFDGEVNVKRPMKDETHFEVVESGRYIILLLGKALSVVWDRHLSISVVLKQTYQEKVCGLCGNFDGIQNNDLTSSNLQVEEDPVDFGNSWKVSSQCADTRKVPLDSSPATCHNNIMKQTMVDSSCRILTSDVFQDCNKLVDPEPYLDVCIYDTCSCESIGDCACFCDTIAAYAHVCAQHGKVVTWRTATLCPQSCEERNLRENGYECEWRYNSCAPACQVTCQHPEPLACPVQCVEGCHAHCPPGKILDELLQTCVDPEDCPVCEVAGRRFASGKKVTLNPSDPEHCQICHCDVVNLTCEACQEPGGLVVPPTDAPVSPTTLYVEDISEPPLHDFHHHHHHHH
